# Reference: patent publication US20240209095A1 (DEVELOPMENT CENTER FOR BIOTECHNOLOGY, published 2024)
# Legend:
# [1] = biological target: T1, PDL1-hFc (UniProt Q9NZQ7 19-238); test: ELISA titration on PDL1-hFc 1 ug/ml, 45 nM to 2.7×10^-3 nM, one site-specific binding fit
# T1 construct: Coated at 1 µg/ml in the ELISAs of the chimeric and humanized antibodies; construct not described
# Protocol: (§1) ELISA plates were coating with PDL1-hFc 1 ug/ml and blocked by 5% milk PBS, then add assay antibodies form 45 nM to 2.7×10⁻³ nM dilute (4× fold dilution). Assay will measured by add goat anti-human KAPPA HRP IgG 1:4000 and binding curve and KD was determined by GraphPad Prism software using One site-specific binding for none linear fit methods.
# [2] = biological target: T1, PDL1-hFc; test: ELISA titration on PDL1-hFc, KD compared with parental 3C3 (FIG. 10)
# Protocol: as §1
# [3] = biological target: T1, PDL1-hFc; test: ELISA, PDL1-hFc coated 1 µg/ml, antibody supernatant at 300 ng/ml, anti-human Kappa HRP
# Protocol: The binding activity of humanized antibodies could be efficiently compared by all combination of heavy chains and light chains using mini scale antibody expression. The concentration of antibodies in culture supernatant was determent by anti-human IgG ELISA. For PDL1 ELISA, plates were coating with PDL1-hFc 1 μg/ml and blocked by 5% milk PBS. Assay antibodies were adjusted to 300 ng/ml, 100 μl/well. Anti-PDL1 signals were measured by secondary goat anti-human Kappa HRP IgG 1:4000 and color developed by TMB substrates (KPL). Optical absorption value was measured at OD450-655 nm by Bio-Rad ELISA reader.
# [4] = biological target: T2, human PD-L1 expressed on cells (HCC827 cells; PD-L1 aAPC/CHO-K1 cells) (human, UniProt Q9NZQ7 19-290); test: cell-based or functional assay
# T2 sequence (Q9NZQ7 19-290): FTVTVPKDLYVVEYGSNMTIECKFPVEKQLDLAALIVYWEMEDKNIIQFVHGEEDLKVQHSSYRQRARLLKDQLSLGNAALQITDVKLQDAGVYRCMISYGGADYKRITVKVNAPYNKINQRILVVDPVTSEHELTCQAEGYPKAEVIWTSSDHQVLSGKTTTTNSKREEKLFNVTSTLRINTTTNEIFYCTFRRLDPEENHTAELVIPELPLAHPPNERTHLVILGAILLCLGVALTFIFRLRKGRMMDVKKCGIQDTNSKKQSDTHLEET
# [5] = biological target: T2, human PD-L1 expressed on cells (HCC827 …); test: cell-based or functional assay; remark: listed apart in the source
# [6] = biological target: T2, human PD-L1 expressed on cells (HCC827 …); test: cell-based or functional assay; remark: listed apart in the source
# [7] = biological target: T3, human PD-L1 (coated on ELISA plate) (human, UniProt Q9NZQ7 19-238, limits assumed); test: ELISA, PD-L1 coated 0.1 µg/well, goat anti-mouse IgG-HRP
# T3 construct: construct not described; also called CD274; B7 homolog 1
# T3 sequence (Q9NZQ7 19-238 limits assumed): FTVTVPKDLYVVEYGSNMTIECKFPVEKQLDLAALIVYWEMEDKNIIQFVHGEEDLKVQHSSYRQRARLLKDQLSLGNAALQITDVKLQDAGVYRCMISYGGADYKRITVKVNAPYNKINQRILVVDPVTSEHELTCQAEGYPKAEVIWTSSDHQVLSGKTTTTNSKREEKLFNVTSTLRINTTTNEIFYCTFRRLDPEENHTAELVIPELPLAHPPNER
# Protocol: Briefly, PD-L1 was coated on a 96-well ELISA plate (0.1 μg/well). After binding of anti-PD-L1 antibodies, a goat anti mouse IgG conjugated with horse radish peroxidase (HRP) was used as a second antibody and 3,3′,5,5′-Tetramethylbenzidine (TMB) was used as a substrate to assess the antibody-PD-L1 bindings. The OD405 was read to calculate the activities.
# T1 sequence (Q9NZQ7 19-238): as the sequence (Q9NZQ7 19-238 limits assumed) above
Binder,Kd [1] [nM],fold affinity loss against parental mouse clone 3C3 [2] [fold],"OD450-650 nM, 300 ng/ml PDL1 binding [3] [OD]",3C3 humanized antibodies Blockade Reporter Assay EC50 [4] [nM],PD1/PD-L1 Blockade Reporter Assay EC50 [5] [nM],Luc repoter EC50 [6] [nM],Kd [7] [nM]
"3C3 humanized antibody HuB2Hu (antibody, V domains shown, Human IgG, kappa, from pTCAED vectors; also called 3C3-HuB2Hu; 3C3 HuB2Hu) VH: EVQLQESGPGLVKPSQTLSLTCTVSGYSITSDYWDWIRKPPGKGLEYMGYISYTGSTYYNPSLRSRITISRDTSKNQYSLKLSSVTAADTAVYYCARRGGWLSPFVYWGQGTLVTVSS VL: DIQMTQSPSSLSASVGDRVTITCKSRQSLLFSSNQKNSLAWYQQKPGKAPKLLIYWASTRESGVPSRFSGSGSGTDFTLTISSLQPEDFATYYCQQYYTYPFTFGQGTKLEIK",0.0936,< 2,1.35,0.441,,,
"3C3 humanized antibody HuB2Hu2 (antibody, V domains shown, Human IgG, kappa, from pTCAED vectors; also called 3C3-HuB2Hu2; 3C3 HuB2Hu2) VH: EVQLQESGPGLVKPSQTLSLTCTVSGYSITSDYWDWIRKPPGKGLEYMGYISYTGSTYYNPSLRSRITISRDTSKNQYSLKLSSVTAADTAVYYCARRGGWLSPFVYWGQGTLVTVSS VL: DIVMTQTPLSLSVTPGQPASISCKSRQSLLFSSNQKNSLAWYLQKPGQSPQLLIYWASTRESGVPDRFSGSGSGTDFTLKISRVEAEDVGVYYCQQYYTYPFTFGQGTKLEIK",0.101,< 2,1.05,0.409,,,

# Next, values leading:
Kd [1] [nM],fold affinity loss against parental mouse clone 3C3 [2] [fold],"OD450-650 nM, 300 ng/ml PDL1 binding [3] [OD]",3C3 humanized antibodies Blockade Reporter Assay EC50 [4] [nM],PD1/PD-L1 Blockade Reporter Assay EC50 [5] [nM],Luc repoter EC50 [6] [nM],Kd [7] [nM],Binder
,,,,0.62,0.62,0.0435,"mouse hybridoma anti-human PD-L1 antibody 1G8 (antibody, V domains shown, Mouse monoclonal antibody from hybridoma, detected with goat anti-mouse IgG; also called mAb 1G8; mouse clone 1G8) VH: QVQLQESGPGLAKPSQTLSLTCSVTGYSITSDYWNWIRKFPGNKLEFMGYISYTGSTYYNPSLKSRISITRDTSKNQYYLQLNSVTTEDTATYYCARRGEWLSPFAYWGQGTLVTVSA VL: DIVMSQSPSSLGVSVGEKITMSCKSSQSLLYSSNQKNSLAWYQQKPGQSPKLLIYWASTRESGVPDRFTGSGSGTDFTLTISSVKSEDLAVYYCQQYYTYPFTFGAGTNLELK"
,,,,0.582,0.58,0.0356,"mouse hybridoma anti-human PD-L1 antibody 3C3 (antibody, V domains shown, Mouse monoclonal antibody from hybridoma, detected with goat anti-mouse IgG; also called mAb 3C3; mouse clone 3C3) VH: EVQLQESGPGLTKPSQTLSLTCSVTGYSITSDYWDWIRKFPGNKLEYMGYISYTGSTYYNPSLRSRISITRDTSKNQYYLQLSSVTSEDSATYYCARRGGWLSPFVYWGQGTLVTVSA VL: DTVMSQSPSSLGVSVGERVTLTCKSRQSLLFSSNQKNSLAWYQQKPGQSPKLLIYWASTRESGVPDRFTGSGSGTDFTLTISSVKSEDLAVYYCQQYYTYPFTFGAGTSLELK"
